The source of these data is PMC9898208.

Common to all, as to assay: single-channel current recording
In one experiment the target is OmpG^L6-SA1.1 (E. coli) (UniProt P76045).
For experiment [1], the target named is OmpG^L3-FLAG/L6-SA1.1 (E. coli) (UniProt P76045).
Experiment [2] concerns the target OmpG^L3/L6-SA1.1 (E. coli) (UniProt P76045).

OmpG^L3/L6-SA1.1 (E. coli), sequence (P76045 22-301): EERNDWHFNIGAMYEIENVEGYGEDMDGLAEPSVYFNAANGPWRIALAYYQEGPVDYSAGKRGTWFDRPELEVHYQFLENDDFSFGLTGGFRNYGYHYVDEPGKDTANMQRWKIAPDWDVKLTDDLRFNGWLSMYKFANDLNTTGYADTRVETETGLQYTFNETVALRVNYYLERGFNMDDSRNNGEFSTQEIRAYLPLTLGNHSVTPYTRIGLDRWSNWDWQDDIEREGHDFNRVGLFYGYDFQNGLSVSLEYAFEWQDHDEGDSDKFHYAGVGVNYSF
OmpG^L3-FLAG/L6-SA1.1 (E. coli), sequence (P76045 22-301): as above
OmpG^L6-SA1.1 (E. coli), sequence (P76045 22-301): as above
streptavidin, sequence (P22629 25-183): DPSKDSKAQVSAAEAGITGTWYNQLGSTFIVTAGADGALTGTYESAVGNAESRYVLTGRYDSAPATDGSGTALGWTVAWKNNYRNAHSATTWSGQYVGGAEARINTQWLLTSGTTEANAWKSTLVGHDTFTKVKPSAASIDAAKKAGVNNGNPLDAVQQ

Turning to “streptavidin (from UniProt P22629 25-183) (natural protein)”, in the experiment with OmpG^L6-SA1.1 (E. coli), the Kd (in general, the concentration at which binding is half-saturated) was found to be 10.1 µM; the koff (in general, a measure of how fast the partners let go of each other) was 0.78 s⁻¹; the kon (in general, the second-order rate constant of association) amounted to 77600 M⁻¹ s⁻¹. In experiment [1], this substance showed a Kd of 7.51 µM, an off-rate constant (koff) of 0.55 s⁻¹ and a kon of 72200 M⁻¹ s⁻¹. Further, in experiment [2], the Kd came to 0.03 µM, the k'Off of the sub-events within a discrete binding event came out at 0.7 s⁻¹, the k'On 1 of the sub-events (rebinding) was determined as 3.9e+10 M⁻¹ s⁻¹ and the k'On 2 of the sub-events (rebinding) turned out to be 4.4e+09 M⁻¹ s⁻¹. In experiment [2], this substance yielded a koff of 0.01 s⁻¹, a kon of 326000 M⁻¹ s⁻¹, a tau'On 1 of the sub-events (rebinding) of 2.56 ms and a tau'On 2 of the sub-events (rebinding) of 22.9 ms.
